Data from patent US20160152729A1 (Novo Nordisk, published 2016).
One block for each binder: values may come before it.

Columns and labels:
human TFPIα [1] = target: T1, human TFPIα (human, UniProt P10646 29-304); test: SPR Biacore T200; Fab captured on Human Fab Binder; TFPIα as analyte; 1:1 model; 25 °C
T1 construct: recombinant full-length TFPIα in the assays; also called TFPI alpha; full-length TFPIα
Protocol: Human Fab Binder (Human Fab Capture Kit, GE Healthcare) was immobilized to a series S CM4 sensor chip (GE Healthcare) in flow-cells 1-4 at 9000-10000 response units (RU) using the amine coupling protocol available within the Biacore T-200 control software (GE Healthcare) and the reagents provided with the Amine Coupling Kit (GE Healthcare). […] Different concentrations of human TFPIα were tested by diluting the sample in running buffer (10 mM HEPES, pH 7.4, 300 mM NaCl, 5 mM CaCl₂, 0.05% Surfactant P20, 1 mg/ml BSA). Each sample was assayed using 300 seconds of contact time followed by 600 seconds of dissociation time at 50 μl/min flow rate. A buffer blank was also assayed. The sensor surface was regenerated with 10 mM Glycine pH 2.1 with two cycles each of 30 seconds at 50 μl/min flow rate. The analysis temperature was 25° C. and the sample compartment temperature 10° C.
(§1) The Biacore T200 Evaluation software (version 2.0) was used to analyse the data. Determination of binding constants (kₐ, kd, KD) was obtained assuming a 1:1 interaction of TFPI and the monoclonal antibody of interest.

human TFPIα [2] = target: T1, human TFPIα; test: cell-based or functional assay
human TFPI (1-79) = target: T2, human TFPI (1-79) (human, UniProt P10646 29-107); test: SPR Biacore T200; mAb captured on anti-mouse Ig; TFPI as analyte; 1:1 model
T2 construct: Acidic N-terminal region and KPI-1 domain
From the text: (§2) Binding interaction data were obtained by means of Surface Plasmon Resonance in a Biacore T200 instrument. Polyclonal rabbit anti-mouse immunoglobulin (Mouse Antibody Capture Kit, GE Healthcare) was immobilized to a series S CM4 sensor chip (GE Healthcare) in flow-cells 1-4 using the amine coupling protocol available with the Biacore T-200 control software version 2.0 (GE Healthcare) and the reagents provided with the Amine Coupling Kit (GE Healthcare). The relevant mouse monoclonal antibody was captured in flow cell 2, 3, or 4 at a fixed concentration. Different concentrations of human TFPIα or TFPI (1-79) were tested by diluting the sample in running buffer (10 mM HEPES, pH 7.4, 300 mM NaCl, 5 mM CaCl₂, 0.05% Surfactant P20, 1 mg/ml BSA). Each sample was assayed using 300 seconds of contact time followed by 420-600 seconds of dissociation time at 30 μl/min flow rate. A buffer blank was also assayed. The sensor surface was regenerated with 10 mM Glycine pH 1.7 either for 180 sec at 30 μl/min flow rate or with two cycles each of 30 seconds at 30 μl/min flow rate.
as §1

human TFPIα [3] = target: T1, human TFPIα; test: as above
From the text: as §2, §1

human TFPIα [4] = target: T1, human TFPIα; test: cell-based or functional assay; remark: listed apart in the source
human TFPIα [5] = target: T1, human TFPIα; test: cell-based or functional assay; remark: listed apart in the source
human TFPIα [6] = target: T1, human TFPIα; test: cell-based or functional assay; remark: listed apart in the source
human TFPIα [7] = target: T1, human TFPIα; test: cell-based or functional assay; remark: listed apart in the source
human TFPIα [8] = target: T1, human TFPIα; test: SPR Biacore T200; TFPIα held by captured mAb 2F22
human TFPIα [9] = target: T1, human TFPIα; test: SPR Biacore T200; TFPIα held by captured mAb 2F48

- Kd (human TFPIα [1]): 0.00041 µM
B1: Fab 0295 (Fab, V domains shown)
VH: QVQLKQSGPGLVQPSQSLSITCTVSGFSLTNYGVHWVRQSPGKGLEWLAVIWRGGSIDYNAAFMSRLSITKDNSKSQVFFKMNSLQADDTAIYYCAKNSHGNYVGYAMDYWGQGTSVTVSS
VL: GIVMTQSQKFMSTTVGDRVSITCKASQSVGPAVAWYQQKPGQSPKLLIYSASNRYTGVPDRFTGSGSGADFTLTISNLHSEDLADYFCQQYTSYPTFGGGTKLEIKR
notes: Chimeric Fab of mAb 2F22; heavy chain truncated after the first cysteine of the human IgG4 hinge

- FXa activity (%); FXa generated after 30 min by FVIIa/Innovin/FX with 4 nM TFPIα, 64 nM antibody (human TFPIα [2]): 18.4%
- Kd (human TFPI (1-79)): 0.0135 µM
- koff (human TFPI (1-79)): 0.00505 s⁻¹
- kon (human TFPI (1-79)): 375000 M⁻¹ s⁻¹
- Kd (human TFPIα [3]): 0.00981 µM
- koff (human TFPIα [3]): 0.00361 s⁻¹
- kon (human TFPIα [3]): 368000 M⁻¹ s⁻¹
- Thrombin peak height (Peak); thrombin generation in FVIII-neutralised plasma + 5 nM TFPIα, 10 nM antibody (human TFPIα [4]): 3.7 nM
- Thrombin peak height (Peak); thrombin generation in FVIII-neutralised plasma, no TFPIα added (plasma TFPI), 10 nM antibody (human TFPIα [4]): 35.2 nM
- time to peak (ttPeak); thrombin generation in FVIII-neutralised plasma + 5 nM TFPIα, 10 nM antibody (human TFPIα [4]): 47.8 min
- time to peak (ttPeak); thrombin generation in FVIII-neutralised plasma, no TFPIα added (plasma TFPI), 10 nM antibody (human TFPIα [4]): 8.9 min
- FXa activity (%); remaining FXa amidolytic activity after 40 min, 32 nM mAb pre-incubated with 8 nM TFPIα (human TFPIα [5]): 5.5%
B2: mAb 1F56 (antibody, V domains shown)
VH: DVQLQESGPGLVKPSQSLSLTCTVSGYSITSDYAWNWIRQFPGNKLEWMGYISYSGSTSYNPSLKSRISITRDTSKNQFFLQLNSVTTEDTATYYCARWAYDGPWGQGTLVTVSA
VL: QIVLSQSPALLSASPGEKVTMTCRASSSVSHMHWYQQKPGSSPKPWIYATSNLASGVPARFSGSGSGTSYSLTITRVEAEDAATYYCQQWSSNPFTFGSGTKLEIKR
notes: murine antibody from hybridoma

- FXa activity (%); FXa generated after 30 min by FVIIa/Innovin/FX with 4 nM TFPIα, 64 nM antibody (human TFPIα [2]): 13.9%
- Kd (human TFPI (1-79)): 0.0151 µM
- koff (human TFPI (1-79)): 0.005 s⁻¹
- kon (human TFPI (1-79)): 330000 M⁻¹ s⁻¹
- Kd (human TFPIα [3]): 0.01 µM
- koff (human TFPIα [3]): 0.00349 s⁻¹
- kon (human TFPIα [3]): 347000 M⁻¹ s⁻¹
- Thrombin peak height (Peak); thrombin generation in FVIII-neutralised plasma + 5 nM TFPIα, 10 nM antibody (human TFPIα [4]): 3.6 nM
- Thrombin peak height (Peak); thrombin generation in FVIII-neutralised plasma, no TFPIα added (plasma TFPI), 10 nM antibody (human TFPIα [4]): 34.6 nM
- time to peak (ttPeak); thrombin generation in FVIII-neutralised plasma + 5 nM TFPIα, 10 nM antibody (human TFPIα [4]): 51.8 min
- time to peak (ttPeak); thrombin generation in FVIII-neutralised plasma, no TFPIα added (plasma TFPI), 10 nM antibody (human TFPIα [4]): 9 min
- Thrombin peak height (Peak); thrombin generation in FVIII-neutralised plasma + 20 nM TFPIα, 200 nM antibody (human TFPIα [6]): 0 nM
- FXa activity (%); remaining FXa amidolytic activity after 40 min, 32 nM mAb pre-incubated with 8 nM TFPIα (human TFPIα [5]): 5.8%
- FVIIa/sTF activity (%); 150 nM TFPIα, 200 nM antibody (human TFPIα [7]): 82.2%
- FXa activity (%) after 100 min incubation; 4 nM TFPIα, 20 nM antibody (human TFPIα [7]): 5.1%
B3: mAb 1F91 (antibody, IgG1, V domains shown)
VH: B2 VH
VL: B2 VL
notes: Murine mIgG1, kappa light chain

- fold decrease of the affinity for TFPI to FXa, against TFPI bound to mAb 4F110 (human TFPIα [8]): > 30 fold
- fold decrease of the affinity for TFPI to FXa, against TFPI bound to mAb 4F110 (human TFPIα [9]): < 10 fold
B4: FXa (enzyme)
chain 1: ANSFLEEMKKGHLERECMEETCSYEEAREVFEDSDKTNEFWNKYKDGDQCETSPCQNQGKCKDGLGEYTCTCLEGFEGKNCELFTRKLCSLDNGDCDQFCHEEQNSVVCSCARGYTLADNGKACIPTGPYPCGKQTLER
chain 2: IVGGQECKDGECPWQALLINEENEGFCGGTILSEFYILTAAHCLYQAKRFKVRVGDRNTEQEEGGEAVHEVEVVIKHNRFTKETYDFDIAVLRLKTPITFRMNVAPACLPERDWAESTLMTQKTGIVSGFGRTHEKGRQSTRLKMLEVPYVDRNSCKLSSSFIITQNMFCAGYDTKQEDACQGDSGGPHVTRFKDTYFVTGIVSWGEGCARKGKYGIYTKVTAFLKWIDRSMKTRGLPKAKSHAPEVITSSPLK
